Test results as given in publication PMC7768483, “Gbx2 Is Required for the Migration and Survival of a Subpopulation of Trigeminal Cranial Neural Crest Cells”.

Target: GBX2 (full-length) (mouse, UniProt P48031 1-348)
Assay: EMSA; 720 nM GBX2, 940 pM probe; supershift with GBX2 antibody; 2X binding buffer: 20 mM Tris-HCl pH 7.4, 50 mM KCl, 1 mM DTT, 10% glycerol, 200 µg/mL BSA, 2.2 µg/mL poly dI/dC; 30 min at 25 °C; 6% native PAGE, Tris-glycine
Conditions: protein: recombinant; label: 32P end label (probe); blunt

Chain of GBX2 (full-length) (P48031 whole entry): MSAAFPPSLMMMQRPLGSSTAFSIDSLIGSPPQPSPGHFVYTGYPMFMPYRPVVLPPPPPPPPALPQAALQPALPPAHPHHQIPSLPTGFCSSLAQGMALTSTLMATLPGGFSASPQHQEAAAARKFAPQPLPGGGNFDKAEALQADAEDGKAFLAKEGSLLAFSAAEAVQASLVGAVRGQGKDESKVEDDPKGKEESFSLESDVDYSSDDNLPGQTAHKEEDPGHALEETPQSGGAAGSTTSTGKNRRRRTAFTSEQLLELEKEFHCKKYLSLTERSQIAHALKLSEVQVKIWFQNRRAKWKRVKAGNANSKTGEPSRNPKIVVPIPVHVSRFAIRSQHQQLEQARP

B1: NRP1 oligonucleotide (dsDNA)
DNA 1: AACATTCCAAAAATTATCAACCATTTCAGGAATACATTTCATAAAAGCTAGATTGAGTTCTGCTTGTTTTTTATT
DNA 2: AATAAAAAACAAGCAGAACTCAATCTAGCTTTTATGAAATGTATTCCTGAAATGGTTGATAATTTTTGGAATGTT
  binding result: binds
